T1: rSigP (ECF sigma factor) (Porphyromonas gingivalis ATCC 33277) (UniProt B2RHE8)
T1 sequence: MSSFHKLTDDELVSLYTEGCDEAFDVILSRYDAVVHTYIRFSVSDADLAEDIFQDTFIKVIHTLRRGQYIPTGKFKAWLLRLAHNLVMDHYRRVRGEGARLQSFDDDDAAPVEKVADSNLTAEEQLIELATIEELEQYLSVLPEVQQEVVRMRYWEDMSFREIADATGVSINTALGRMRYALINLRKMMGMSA

T2: recombinant PorX (rPorX) (Porphyromonas gingivalis ATCC 33277, UniProt B2RJJ3 1-518)
T2 construct: also called PGN_1019; source: E. coli BL21(DE3), purified (Ni-NTA agarose)
T2 sequence: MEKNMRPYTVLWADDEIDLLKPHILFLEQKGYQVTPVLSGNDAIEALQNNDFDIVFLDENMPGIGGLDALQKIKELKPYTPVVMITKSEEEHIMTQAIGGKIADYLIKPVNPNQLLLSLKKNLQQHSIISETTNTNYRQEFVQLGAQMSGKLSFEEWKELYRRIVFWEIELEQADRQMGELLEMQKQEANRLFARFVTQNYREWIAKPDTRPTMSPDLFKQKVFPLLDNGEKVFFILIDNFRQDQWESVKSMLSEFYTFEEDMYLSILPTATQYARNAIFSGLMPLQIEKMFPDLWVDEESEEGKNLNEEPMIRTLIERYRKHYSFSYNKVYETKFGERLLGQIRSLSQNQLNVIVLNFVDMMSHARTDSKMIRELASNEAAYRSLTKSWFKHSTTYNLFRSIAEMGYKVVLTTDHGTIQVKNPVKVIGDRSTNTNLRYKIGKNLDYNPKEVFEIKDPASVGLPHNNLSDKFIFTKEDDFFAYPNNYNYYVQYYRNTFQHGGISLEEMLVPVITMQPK

T3: recombinant PorX (rPorX) (Porphyromonas gingivalis ATCC 33277, UniProt B2RJJ3 1-518)
T3 chain: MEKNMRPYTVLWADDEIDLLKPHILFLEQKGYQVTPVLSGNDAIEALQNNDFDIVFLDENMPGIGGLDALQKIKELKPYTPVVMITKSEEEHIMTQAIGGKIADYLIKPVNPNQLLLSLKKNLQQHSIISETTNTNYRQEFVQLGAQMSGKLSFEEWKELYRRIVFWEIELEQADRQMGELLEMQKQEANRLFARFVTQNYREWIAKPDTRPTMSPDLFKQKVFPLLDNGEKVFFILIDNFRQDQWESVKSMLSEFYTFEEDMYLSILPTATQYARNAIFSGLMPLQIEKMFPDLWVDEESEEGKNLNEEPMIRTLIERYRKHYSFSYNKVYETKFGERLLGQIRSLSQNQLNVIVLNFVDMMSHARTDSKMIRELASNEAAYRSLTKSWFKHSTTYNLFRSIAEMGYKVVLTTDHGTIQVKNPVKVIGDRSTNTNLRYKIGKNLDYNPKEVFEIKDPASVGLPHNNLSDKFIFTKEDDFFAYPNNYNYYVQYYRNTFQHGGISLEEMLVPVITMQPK


How the values were obtained:
[1] = biological target: T1, rSigP (ECF sigma factor) (Porphyromonas gingivalis ATCC 33277); test: EMSA
recombinant PorX (rPorX) [2] = biological target: T2, recombinant PorX (rPorX); test: SPR; details: both partners purified
recombinant PorX (rPorX) [3] = biological target: T3, recombinant PorX (rPorX); test: SPR

Molecule | binding [1] | Kd (recombinant PorX (rPorX) [2]) | koff (recombinant PorX (rPorX) [3])
ATTTCGTTCGTTTTGTTTTGTATTCTTATCGGGGTCTATGAATATTCAATATCGTAAACGGCAGAACTGCTTCGGCTATTGTGCTACCACGATCATTTTCTTGGCCATGGAGGCCGTCTG (double strand) [porV promoter probe] | binds |  | 
GGCTATACGCAAAGCAGTCAAGTCCATTCTCTCCGAGGATTCGTCCTTAGCTGTCGAAGATATTATCAAGCGAGCATTACGAATGTTATAACCTTTTCTC (double strand) [sov 5'-adjacent region probe] | no binding |  | 
ACATTATTTATATATCTGCTTCGCTGCTCTCCCCGAATCCTGCGCTAAGGCAGTTTTCAGAGGAAACGAATGCTTTTATACTTTGCATCTCTATTCTTCGTATTGCTCAATGGGAAAGAA (double strand) [porK 5'-adjacent region probe] | no binding |  | 
GCAAAGAGGATTTTTTCTTCAACGAAGAAGAGTACTGATAATGTAATCTCCTTAAGCGAATATGCCCCGGATGTGCAATAATAGCACTCGGGGCTTCGTTTTACCACCGTGGCATCAGTC (double strand) [porP promoter probe] | binds |  | 
ATAATTATTGTTGTGAGGTAGGTTATGCAAATCTACGAACGAGATGTTCTAAATACCGATTCGCGCAAAAATACAATATCTTTGCTGCATAAGGCGTTGA (double strand) [porT promoter probe] | binds |  | 
TTAGTGACTGAAATGCGATTGCCCTGTTACAAACGGACTTGATACAACATTTTCCCTACTTTTGCGTTAGTTTCCTATAGTAATAAACAACACTATGGTG (double strand) [ruvA promoter probe] | binds |  | 
recombinant SigP (rSigP) (natural protein, source: E. coli BL21(DE3), purified (Ni-NTA agarose)) MSSFHKLTDDELVSLYTEGCDEAFDVILSRYDAVVHTYIRFSVSDADLAEDIFQDTFIKVIHTLRRGQYIPTGKFKAWLLRLAHNLVMDHYRRVRGEGARLQSFDDDDAAPVEKVADSNLTAEEQLIELATIEELEQYLSVLPEVQQEVVRMRYWEDMSFREIADATGVSINTALGRMRYALINLRKMMGMSA |  | 78.3 nM | 0.000529 s⁻¹

Reference: PMC4800418, “A two-component system regulates gene expression of the type IX secretion component proteins via an ECF sigma factor” (Scientific Reports, 2016)
